The experiment has as its target T1, ^15N-labelled ubiquitin (WT, untagged) (UniProt P0CG48 1-76, ^15N-labelled).
T1 construct: ubiquitin, the 76-residue mature protein; also called ^15N-ubiquitin; source: E. coli BL21 (DE3) in M9 medium with ^15N-ammonium chloride, purified (cation exchange, Superdex 75 SEC)
Description: NMR titration; ^1H-^15N HSQC of ^15N-ubiquitin titrated with unlabelled UBR4-UBL; 25 mM NaPi pH 7.0, 150 mM NaCl, 1 mM TCEP, 10% D2O; global fit of chemical shift perturbations to 1:1 binding. The following applies: both partners purified.

Data on one molecule can be found in article PMC12286842 (Nature, 2025).

B1: 6×His-tagged UBR4-UBL (residues 4340–4463) (domain or fragment, human, UniProt Q5T4S7-1 4340-4463, looked up)
chain: YPEENEVTEFFVTLEKDPQQEDFLQGRMPGNPYSSNEPGIGPLMRDIKNKICQDCDLVALLEDDSGMELLVNNKIISLDLPVAEVYKKVWCTTNEGEPMRIVYRMRGLLGDATEEFIESLDSTT
notes: UBR4 ubiquitin-like (UBL) domain, residues 4340–4463 of UniProt Q5T4S7-1; also called UBL domain; UBR4 UBL domain; source: E. coli BL21 (DE3), purified (Ni-NTA HisTrap FF, Superdex 75 SEC)
With B1, the Kd amounted to 124 µM.
